From patent US6942980

T1: bacterially expressed glutathione-S-transferase (GST)-RAR-γ fusion protein (human) (UniProt P13631)
T1 sequence (looked up): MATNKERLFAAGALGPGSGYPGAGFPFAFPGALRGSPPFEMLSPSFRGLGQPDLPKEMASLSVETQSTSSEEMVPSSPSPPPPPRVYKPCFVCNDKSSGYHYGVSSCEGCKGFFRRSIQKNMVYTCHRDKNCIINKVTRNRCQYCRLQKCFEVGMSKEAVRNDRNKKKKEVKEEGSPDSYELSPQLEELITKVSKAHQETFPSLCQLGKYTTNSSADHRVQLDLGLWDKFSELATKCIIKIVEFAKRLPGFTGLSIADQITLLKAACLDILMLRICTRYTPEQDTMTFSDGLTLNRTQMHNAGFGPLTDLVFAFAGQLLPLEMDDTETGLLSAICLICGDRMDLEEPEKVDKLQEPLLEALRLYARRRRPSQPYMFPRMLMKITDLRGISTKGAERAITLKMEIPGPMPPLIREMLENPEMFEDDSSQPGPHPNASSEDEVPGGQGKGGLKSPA

B1: [35S]-radiolabeled in vitro translated N-CoR-C' (C-terminus of N-CoR, amino acids 1629-2453) (protein, UniProt Q60974 1629-2453, looked up)
chain: MQVNLRPDVTRGLSPREQPLGLPYPATRGIIDLTNMPPTILVPHAGGTSTPPMDRITYIPGTQVTFPPRPYNAASLSPGHPTHLAAAASAEREREREREKERERERERERERERERIAAAPADLYLRPGSEQPGRPGSHGYVRSPSPSVRTQETILQQRPSVFQGTNGTSVITPLDPTAQLRIMPLPSGGPSISQGLPASRYNTAADALAALVDAAASAPQMDVSKTKESKHEAARLEENLRSRSAAVSEQQQLEQKNLEVEKRSVQCVCTSSALPSGKAQPHASVVYSEAGKDKGPPPKSRYEEELRTRGKTTITAANFIDVIITRQIASDKDARERGSQSSDSSSSLSSHRYETASDAIEVISPASSPAPPQEKPQAYQPDMVKANQAENESTRQYEGPLHHYRSQQESPSPQQQPPLPPSSQSEGMGQVPRTHRLITLADHICQIITQDFARNQVPSQASTSTFQTSPSALSSTPVRTKTSSRYSPESQSQTVLHPRPGPRVSPENLVDKSRGSRPGKSPERSHIPSEPYEPISPPQGPAVHEKQDSMLLLSQRGVDPAEQRSDSRSPGSISYLPSFFTKLESTSPMVKSKKQEIFRKLNSSGGGDSDMAAAQPGTEIFNLPAVTTSGAVSSRSHSFADPASNLGLEDIIRKALMGSFDDKVEDHGVVMSHPVGIMPGSASTSVVTSSEARRDEGEPSPHAGVCKPKLINKSNSRKSKSPIPGQSYLGTERPSSVSSVHSEGDYHRQTPGWAWEDRPSSTGSTQFPYNPLTIRMLSSTPPTQIACAPSAITQAAPHQQNRIWEREPAPLLSAQYETLSDSDD
modifications: 35S-methionine radiolabel

Assays:
[1] = molecular target: Gal-4 AD-RAR-γ fusion protein (Gal-4 activation domain joined to RAR-γ, from pACT-RAR-γ) (yeast; human) (UniProt P13631); test: cell-based or functional assay
[2] = molecular target: T1, bacterially expressed glutathione-S-transferase (GST)-RAR-γ fusion protein (human); test: GST pull-down: 35S-labeled N-CoR-C' on GST-RAR-γ beads, incubation 20 minutes at 30° C.; phosphoimager quantitation
[3] = molecular target: T1, bacterially expressed glutathione-S-transferase (GST)-RAR-γ fusion protein (human); test: GST pull-down: 35S-labeled N-CoR-C' on GST-RAR-γ beads, incubation 20 minutes at 37° C.; phosphoimager quantitation
[4] = molecular target: T1, bacterially expressed glutathione-S-transferase (GST)-RAR-γ fusion protein (human); test: GST pull-down: 35S-labeled N-CoR-C' on GST-RAR-γ beads, incubation 20 minutes at 20° C.; phosphoimager quantitation

Molecule	Units of β-galactosidase activity, yeast two-hybrid in Y190; 1 µM AGN 193109, Triplicate 1 [1] [units]	Units of β-galactosidase activity, yeast two-hybrid in Y190; 1 µM AGN 193109, Triplicate 2 [1] [units]	Units of β-galactosidase activity, yeast two-hybrid in Y190; 1 µM AGN 193109, Triplicate 3 [1] [units]	Units of β-galactosidase activity, yeast two-hybrid in Y190; 1 µM TTNPB, Triplicate 1 [1] [units]	Units of β-galactosidase activity, yeast two-hybrid in Y190; 1 µM TTNPB, Triplicate 2 [1] [units]	Units of β-galactosidase activity, yeast two-hybrid in Y190; 1 µM TTNPB, Triplicate 3 [1] [units]	Units of β-galactosidase activity, yeast two-hybrid in Y190; Control (DMSO), Triplicate 1 [1] [units]	Units of β-galactosidase activity, yeast two-hybrid in Y190; Control (DMSO), Triplicate 2 [1] [units]	Units of β-galactosidase activity, yeast two-hybrid in Y190; Control (DMSO), Triplicate 3 [1] [units]	β-Galactosidase Activity (units), yeast two-hybrid in Y190; 1 µM AGN 194310 [1] [units]	β-Galactosidase Activity (units), yeast two-hybrid in Y190; Control (DMSO) [1] [units]	fold decrease in N-CoR interaction with RAR (1 µM TTNPB against vehicle alone, 30° C.) [2] [fold]	fold increase in N-CoR interaction with RAR (1 µM AGN 193109 against vehicle alone, 30° C.) [2] [fold]	fold increase in interaction between RAR and N-CoR (1 µM AGN 193109 against vehicle alone, 37° C.) [3] [fold]	fold decrease in N-CoR binding (1 µM TTNPB against vehicle alone, 20° C.) [4] [fold]	fold increase in N-CoR binding (1 µM AGN 193109 against vehicle alone, 20° C.) [4] [fold]
GAL-4 DBD-N-CoR fusion protein (GAL-4 DNA binding domain fused to the full length N-CoR polypeptide, from pAS-N-CoR) (from UniProt P04386 1-147; Q60974 1-2453)	5.91	4.43	4.15	2.26	1.83	1.96	2.18	2.12	1.69	5.1	0.82	–	–	–	–	–
B1	–	–	–	–	–	–	–	–	–	–	–	4.5	2.2	20.5	2.6	1.6
